Data as given in patent US20180362616A1 (NATIONAL INSTITUTE FOR BIOTECHNOLOGY IN THE NEGEV, published 2018).
Substitutions are numbered along the chain they refer to. Numbers in names are those of the source.

How the values were obtained:
[1] = molecular target: T1, human anionic trypsin (human, UniProt P07478 24-247); experiment: inhibition of anionic trypsin cleavage of Z-GPR-pNA; slow tight-binding fit
T1 construct: mature

[2] = molecular target: T2, human mesotrypsin (catalytically active) (human, UniProt P35030 81-304); experiment: inhibition of mesotrypsin cleavage of Z-GPR-pNA
T2 construct: mature; In the invasion assays it is the endogenous enzyme of PC3-M cells; also called active mesotrypsin; PRSS3 gene product
T2 sequence (looked up): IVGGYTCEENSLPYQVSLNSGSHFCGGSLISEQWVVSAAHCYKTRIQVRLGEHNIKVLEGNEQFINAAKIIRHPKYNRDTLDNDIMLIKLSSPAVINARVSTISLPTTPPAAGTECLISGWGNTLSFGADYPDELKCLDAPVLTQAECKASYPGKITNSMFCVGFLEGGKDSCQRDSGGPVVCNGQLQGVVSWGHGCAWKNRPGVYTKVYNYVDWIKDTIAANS

[3] = molecular target: T3, human cationic trypsin (human, UniProt P07477 24-247); experiment: inhibition of cationic trypsin cleavage of Z-GPR-pNA; slow tight-binding fit
T3 construct: mature

[4] = molecular target: T4, human Kallikrein-6 (human, UniProt Q92876 22-244); experiment: SPR, APPI held on nickel chip by its His tag, hK6 as analyte, 25° C.
[5] = molecular target: T5, Factor XIa (human, UniProt P03951 19-625); experiment: inhibition of FXIa cleavage of S-2366
T5 construct: also called FXIa

[6] = molecular target: T2, human mesotrypsin (catalytically active); experiment: inhibition of mesotrypsin cleavage of Z-GPR-pNA; competitive inhibition fit (Equation 1)
[7] = molecular target: T4, human Kallikrein-6; experiment: inhibition of kallikrein-6 cleavage of BOC-Phe-Ser-Arg-AMC; slow tight-binding fit
[8] = molecular target: T4, human Kallikrein-6; experiment: inhibition of hK6 catalytic activity, slow tight inhibition mechanism
[9] = molecular target: T2, human mesotrypsin (catalytically active); experiment: free energy change of association calculated from Ki of mesotrypsin inhibition (Equation 4), triple mutant cycle
[10] = molecular target: T2, human mesotrypsin (catalytically active); experiment: cell-based or functional assay
[11] = molecular target: T2, human mesotrypsin (catalytically active); experiment: Ki against that of APPI-WT, mesotrypsin inhibition
[12] = molecular target: T2, human mesotrypsin (catalytically active); experiment: inhibition of mesotrypsin cleavage of Z-GPR-pNA; slow tight-binding fit (Equation 2)
[13] = molecular target: T2, human mesotrypsin (catalytically active); experiment: Ki against that of APPI-WT, mesotrypsin inhibition (Equation 1)
[14] = molecular target: T2, human mesotrypsin (catalytically active); experiment: Ki against that of APPI-WT, mesotrypsin inhibition (Equation 2)
[15] = molecular target: T2, human mesotrypsin (catalytically active); experiment: inhibition of mesotrypsin cleavage of Z-GPR-pNA; slow tight-binding fit
[16] = molecular target: T1, human anionic trypsin; experiment: by the numbers: Ki (fold) for mesotrypsin over Ki (fold) for anionic trypsin
[17] = molecular target: T1, human anionic trypsin; experiment: Ki of APPI-WT over Ki of APPI-M17G/I18F/F34V, anionic trypsin
[18] = molecular target: T5, Factor XIa; experiment: Ki of APPI-WT over Ki of APPI-M17G/I18F/F34V, FXIa
[19] = molecular target: T4, human Kallikrein-6; experiment: Ki of APPI-WT over Ki of APPI-M17G/I18F/F34V, kallikrein-6
[20] = molecular target: T2, human mesotrypsin (catalytically active); experiment: by the numbers: Ki (fold) for mesotrypsin over Ki (fold) for this protease
[21] = molecular target: T3, human cationic trypsin; experiment: by the numbers: Ki (fold) for mesotrypsin over Ki (fold) for cationic trypsin
[22] = molecular target: T3, human cationic trypsin; experiment: Ki of APPI-WT over Ki of APPI-M17G/I18F/F34V, cationic trypsin
[23] = molecular target: T4, human Kallikrein-6; experiment: by the numbers: Ki (fold) for mesotrypsin over Ki (fold) for kallikrein-6
[24] = molecular target: T2, human mesotrypsin (catalytically active); experiment: Ki of APPI-WT over Ki of APPI-M17G/I18F/F34V, mesotrypsin
[25] = molecular target: T5, Factor XIa; experiment: by the numbers: Ki (fold) for mesotrypsin over Ki (fold) for FXIa
[26] = molecular target: T2, human mesotrypsin (catalytically active); experiment: inhibition constant of soluble variant; target taken as mesotrypsin
[27] = molecular target: T2, human mesotrypsin (catalytically active); experiment: cell-based or functional assay; remark: listed apart in the source
[28] = molecular target: T2, human mesotrypsin (catalytically active); experiment: Ki of soluble variant against APPI-WT
[29] = molecular target: T2, human mesotrypsin (catalytically active); experiment: inhibition of mesotrypsin activity
[30] = molecular target: T4, human Kallikrein-6; experiment: SPR, APPI held on nickel chip by its His tag, hK6 as analyte

B1: APPI-WT (SEQ ID NO: 25), soluble, expressed in Pichia pastoris (other)
chain: EVCSEQAETGPCRAMISRWYFDVTEGKCAPFFYGGCGGNRNNFDTEEYCMAVCGSAI
notes: Secreted from P. pastoris GS115, purified by nickel IMAC and gel filtration; also called WT APPI; not shown: N-terminal FLAG tag with the SnaBI/EcoRI-coded residues, and the C-terminal AvrII-coded residues plus His6
Ki [1]: 0.00174 nM
Ki [2]: 131 nM
Ki [3]: 0.00627 nM
Kd [4]: 7.91 nM
Ki [5]: 0.41 nM
Ki [6]: 131 nM
Ki [7]: 2.23 nM
Ki [8]: 2.24 nM

B2: APPI-F34V (SEQ ID NO: 23), soluble (designed binder)
chain: B1 chain with F32V
notes: Variants were subcloned between EcoRI and AvrII of the APPI-WT pPIC9K template; not shown: AvrII site residues and C-terminal HIS6 tag
ΔΔGa, edge WT to F34V [9]: -0.59 kcal/mol
Kcat (s^-1) of hydrolysis of APPI by mesotrypsin (HPLC time course) [10]: 0.0161 s⁻¹
Ki [6]: 50.1 nM
Ki (fold) [11]: 2.6 fold

B3: APPI-I18F (SEQ ID NO: 19), soluble (designed binder)
chain: B1 chain with I16F
notes: not shown: AvrII site residues and C-terminal HIS6 tag
ΔΔGa, edge WT to I18F [9]: -2.26 kcal/mol
Kcat (s^-1) of hydrolysis of APPI by mesotrypsin (HPLC time course) [10]: 0.0104 s⁻¹
Ki [6]: 3.29 nM
Ki (fold) [11]: 39.8 fold

B4: APPI-I18F/F34V (SEQ ID NO: 20), soluble (designed binder)
chain: B1 chain with I16F, F32V
notes: as for B3
ΔΔGa, edge F34V to I18F/F34V [9]: -1.67 kcal/mol
ΔΔGa, edge I18F to I18F/F34V [9]: 0 kcal/mol
Kcat (s^-1) of hydrolysis of APPI by mesotrypsin (HPLC time course) [10]: 0.00535 s⁻¹
Ki (fold) [11]: 39.8 fold
Ki [12]: 3.3 nM

B5: APPI-M17G (SEQ ID NO: 18), soluble (designed binder)
chain: B1 chain with M15G
notes: as for B3
ΔΔGa, edge WT to M17G [9]: -2.26 kcal/mol
Kcat (s^-1) of hydrolysis of APPI by mesotrypsin (HPLC time course) [10]: 0.0156 s⁻¹
Ki [6]: 3.29 nM
Ki (fold) [13]: 39.8 fold
Ki (fold) [14]: 34.8 fold
Ki [12]: 3.69 nM

B6: APPI-M17G/F34V (SEQ ID NO: 21), soluble (designed binder)
chain: B1 chain with M15G, F32V
notes: as for B3
ΔΔGa, edge F34V to M17G/F34V [9]: -2.2 kcal/mol
ΔΔGa, edge M17G to M17G/F34V [9]: -0.53 kcal/mol
Kcat (s^-1) of hydrolysis of APPI by mesotrypsin (HPLC time course) [10]: 0.00371 s⁻¹
Ki (fold) [11]: 93.6 fold
Ki [12]: 1.4 nM

B7: APPI-M17G/I18F (SEQ ID NO: 22), soluble (designed binder)
chain: B1 chain with M15G, I16F
notes: as for B3
ΔΔGa, edge I18F to M17G/I18F [9]: -1.22 kcal/mol
ΔΔGa, edge M17G to M17G/I18F [9]: -1.22 kcal/mol
Kcat (s^-1) of hydrolysis of APPI by mesotrypsin (HPLC time course) [10]: 0.00291 s⁻¹
Ki (fold) [11]: 290 fold
Ki [12]: 0.453 nM

B8: APPI-M17G/I18F/F34V (SEQ ID NO: 8), soluble (designed binder)
chain: B1 chain with M15G, I16F, F32V
notes: also called APPI 3M; APPI^3M; not shown: AvrII site residues and C-terminal HIS6 tag
Ki [1]: 0.00147 nM
Ki [15]: 0.0898 nM
specificity ratio (formula not given) [16]: 1240
Ki (fold) [17]: 1.18 fold
Ki (fold) [18]: 0.00416 fold
Ki [3]: 0.00496 nM
Ki (fold) [19]: 2.04 fold
specificity ratio (formula not given) [20]: 1
specificity ratio (formula not given) [21]: 1120
Kcat (s^-1) of hydrolysis of APPI by mesotrypsin (HPLC time course) [10]: 0.000429 s⁻¹
Ki [5]: 98.4 nM
Ki [7]: 1.09 nM
Ki (fold) [22]: 1.3 fold
Ki (fold) [11]: 1460 fold
specificity ratio (formula not given) [23]: 715
Ki [8]: 1.1 nM
Ki [12]: 0.0898 nM
Ki (fold) [24]: 1460 fold
specificity ratio (formula not given) [25]: 350000

B9: APPIM17C/I18F/F34C (SEQ ID NO: 12), soluble (designed binder)
chain: B1 chain with M15C, I16F, F32C
notes: as for B3
Ki [26]: 0.0524 nM
Kcat (1/s), proteolytic resistance [27]: 0.00038 s⁻¹
fold improvement in affinity relative to APPI-WT [28]: ~2000 fold

B10: APPIM17G/I18F/K29L/F34V (SEQ ID NO: 10), soluble (designed binder)
chain: B1 chain with M15G, I16F, K27L, F32V
notes: as for B3
Ki [26]: 0.0891 nM
Kcat (1/s), proteolytic resistance [27]: 0.000535 s⁻¹
fold improvement in affinity relative to APPI-WT [28]: ~1000 fold

B11: APPIM17L,I18F,S19F,F34V (SEQ ID NO: 13), soluble (designed binder)
chain: B1 chain with M15L, I16F, S17F, F32V
notes: also called APPI 3M G17L,S19F; not shown: His tag at the C-terminal
Ki [29]: 5.38 nM
Kd [4]: 0.351 nM
fold improvement in binding compared to APPI WT [30]: 22.5 fold

B12: APPIT11C/M17G/I18F/F34C (SEQ ID NO: 11), soluble (designed binder)
chain: B1 chain with T9C, M15G, I16F, F32C
notes: as for B3
Ki [26]: 149 nM
Kcat (1/s), proteolytic resistance [27]: 0.00521 s⁻¹

B13: APPIT11V/M17G/I18F/F34V (SEQ ID NO: 9), soluble (designed binder)
chain: B1 chain with T9V, M15G, I16F, F32V
notes: as for B3
Ki [26]: 0.0499 nM
Kcat (1/s), proteolytic resistance [27]: 0.000347 s⁻¹
fold improvement in affinity relative to APPI-WT [28]: ~2000 fold
